Measurements as given in paper doi:10.1101/322404, “Discovery of a novel stereospecific β-hydroxyacyl-CoA lyase/thioesterase shared by three metabolic pathways in Mycobacterium tuberculosis” (bioRxiv, 2018).

Molecular target: the molecule itself
Test: crystal structure

B1: Mycobacterium tuberculosis Rv2498c, β-hydroxyacyl-CoA lyase/thioesterase (enzyme)
chain: MNLRAAGPGWLFCPADRPERFAKAAAAADVVILDLEDGVAEAQKPAARNALRDTPLDPERTVVRINAGGTADQARDLEALAGTAYTTVMLPKAESAAQVIELAPRDVIALVETARGAVCAAEIAAADPTVGMMWGAEDLIATLGGSSSRRADGAYRDVARHVRSTILLAASAFGRLALDAVHLDILDVEGLQEEARDAAAVGFDVTVCIHPSQIPVVRKAYRPSHEKLAWARRVLAASRSERGAFAFEGQMVDSPVLTHAETMLRRAGEATSE
notes: also called β-HAClyase/thioesterase; CitE-like
With B1 the “stoichiometry N” value was 3.
